B1: hzKM5320 LV0HV0 antibody (antibody, V domains shown)
VH: QVQLVQSGSELKKPGASVKVSCKASGYTFTNYGMNWVRQAPGQGLEWMGWINTETGEPTYSDDFKGRFVFSLDTSVSTAYLQISSLKAEDTAVYYCAREDGYYGTLDYWGQGTTVTVSS
VL: DVVMTQSPDSLAVSLGERVTINCKASQSVSNDVAWYQQKPGQSPKLLIYYASNRYTGVPDRFSGSGSGTDFTLTISSLQAEDVAVYYCQQDYSSPWTFGQGTKLEIK
notes: Humanized; variant human IgG4 constant region (EU S228P, L235E, R409K), human kappa; also called A-02
B2: hzKM5320 LV1bHV0 antibody (antibody, V domains shown)
VH: B1 VH
VL: B1 VL with L78V
notes: Humanized; variant human IgG4 constant region (EU S228P, L235E, R409K), human kappa; also called A-04
B3: hzKM5320 LV5HV2 antibody (antibody, V domains shown)
VH: B1 VH with V93T, Y95F
VL: B1 VL with V2I, L46V, L73F, L78V, Y87F
notes: Humanized; variant human IgG4 constant region (EU S228P, L235E, R409K), human kappa; also called kzKM5320 LV5HV2; A-20
B4: KM5321 chimeric antibody (antibody, V domains shown)
VH: QIQLVQSGPELKKPGETVKISCRASGYTFTNYGMNWVKQAPGKGLKWMGWINTNTGEPTYTEEFKGRFAFSLETSATTAYLQINDLKNEDTATYFCARDEGWFVYWGQGTLITVSA
VL: ETTVTQSPASLSVATGEKVTIRCITSTDIDDDMNWYQQKPGEPPKLLISEGNTLRPGVPSRFSSSGYGTDFVFTIENTLSEDVADYYCLQTDSVPLTFGAGTKLELK
notes: also called KM5321 chimera; B-01
B5: hzKM5321 LV6HV2b antibody (antibody, V domains shown)
VH: QVHLVQSGPELKKPGASVKISCKASGYTFTNYGMNWVRQAPGQGLEWMGWINTNTGEPTYTEEFKGRFVFSLDTSVTTSYLQISTLKAEDTATYFCARDEGWFVYWGQGTLVTVSS
VL: ETTLTQSPSSLSVSTGDRVTITCITSTDIDDDMNWYQQKPGKPPKLLISEGNTLRPGVPSRFSSSGSGTDFTLTISSTQPEDFADYYCLQTDSVPLTFGQGTKVEIK
notes: Humanized; variant human IgG4 constant region (EU S228P, L235E, R409K), human kappa; also called B-24; LV6HV2b
B6: hzKM5321 LV7bHV0 antibody (antibody, V domains shown)
VH: B5 VH with P9S, T93V
VL: B5 VL with L4V, T15V, P43A, L73F, V104L
notes: Humanized; variant human IgG4 constant region (EU S228P, L235E, R409K), human kappa; also called B-10; LV7bHV0
B7: hzKM5321 LV6HV4b antibody (antibody, V domains shown)
VH: B5 VH with R38K, E46K
VL: B5 VL
notes: Humanized; variant human IgG4 constant region (EU S228P, L235E, R409K), human kappa; also called B-28; LV6HV4b
B8: hzKM5321 LV6HV3b antibody (antibody, V domains shown)
VH: B5 VH with P9S, R38K, E46K
VL: B5 VL
notes: Humanized; variant human IgG4 constant region (EU S228P, L235E, R409K), human kappa; also called B-26; LV6HV3b
B9: hzKM5321 LV6HV5 antibody (antibody, V domains shown)
VH: B5 VH with V2I, P9S, R38K, E46K, S79A, T93V, V112I
VL: B5 VL
notes: Humanized; variant human IgG4 constant region (EU S228P, L235E, R409K), human kappa; also called B-29; LV6HV5
B10: hzKM5321 LV6HV4a antibody (antibody, V domains shown)
VH: B5 VH with V2I, S79A, T93V, V112I
VL: B5 VL
notes: Humanized; variant human IgG4 constant region (EU S228P, L235E, R409K), human kappa; also called B-27; LV6HV4a
B11: hzKM5321 LV9HV0 antibody (antibody, V domains shown)
VH: B5 VH with P9S, T93V
VL: B5 VL with L4V, L73F, V104L
notes: Humanized; variant human IgG4 constant region (EU S228P, L235E, R409K), human kappa; also called B-11; LV9HV0
B12: hzKM5321 LV6HV7 antibody (antibody, V domains shown)
VH: B5 VH with V2I, R38K, E46K, S79A, V112I
VL: B5 VL
notes: Humanized; variant human IgG4 constant region (EU S228P, L235E, R409K), human kappa; also called B-18; LV6HV7
B13: hzKM5321 LV7aHV0 antibody (antibody, V domains shown)
VH: B5 VH with P9S, T93V
VL: B5 VL with L73F
notes: Humanized; variant human IgG4 constant region (EU S228P, L235E, R409K), human kappa; also called B-09; LV7aHV0
B14: hzKM5321 LV9HV7 antibody (antibody, V domains shown)
VH: B5 VH with V2I, R38K, E46K, S79A, V112I
VL: B5 VL with L4V, L73F, V104L
notes: Humanized; variant human IgG4 constant region (EU S228P, L235E, R409K), human kappa; also called B-21; LV9HV7
B15: hzKM5321 LV7aHV7 antibody (antibody, V domains shown)
VH: B5 VH with V2I, R38K, E46K, S79A, V112I
VL: B5 VL with L73F
notes: Humanized; variant human IgG4 constant region (EU S228P, L235E, R409K), human kappa; also called B-19; LV7aHV7
B16: hzKM5321 LV7bHV7 antibody (antibody, V domains shown)
VH: B5 VH with V2I, R38K, E46K, S79A, V112I
VL: B5 VL with L4V, T15V, P43A, L73F, V104L
notes: Humanized; variant human IgG4 constant region (EU S228P, L235E, R409K), human kappa; also called B-20; LV7bHV7

Where a chain is given by its changes, count along the chain named. Numbers in names are those of the source. Where “and” joins values, the source holds several entries; their conditions need not be identical. Equal entries are not always repeated.

One assay addresses T1, C-terminally FLAG-tagged human Gas6 recombinant protein (hGas6-F) (human, UniProt Q14393 31-678, gamma-carboxylated glutamic acid residues in the Gla domain (producer cells co-express rat VKOR and human GGCX); positions not given).
T1 construct: also called human Gas6-F; human Gas6 protein
T1 sequence: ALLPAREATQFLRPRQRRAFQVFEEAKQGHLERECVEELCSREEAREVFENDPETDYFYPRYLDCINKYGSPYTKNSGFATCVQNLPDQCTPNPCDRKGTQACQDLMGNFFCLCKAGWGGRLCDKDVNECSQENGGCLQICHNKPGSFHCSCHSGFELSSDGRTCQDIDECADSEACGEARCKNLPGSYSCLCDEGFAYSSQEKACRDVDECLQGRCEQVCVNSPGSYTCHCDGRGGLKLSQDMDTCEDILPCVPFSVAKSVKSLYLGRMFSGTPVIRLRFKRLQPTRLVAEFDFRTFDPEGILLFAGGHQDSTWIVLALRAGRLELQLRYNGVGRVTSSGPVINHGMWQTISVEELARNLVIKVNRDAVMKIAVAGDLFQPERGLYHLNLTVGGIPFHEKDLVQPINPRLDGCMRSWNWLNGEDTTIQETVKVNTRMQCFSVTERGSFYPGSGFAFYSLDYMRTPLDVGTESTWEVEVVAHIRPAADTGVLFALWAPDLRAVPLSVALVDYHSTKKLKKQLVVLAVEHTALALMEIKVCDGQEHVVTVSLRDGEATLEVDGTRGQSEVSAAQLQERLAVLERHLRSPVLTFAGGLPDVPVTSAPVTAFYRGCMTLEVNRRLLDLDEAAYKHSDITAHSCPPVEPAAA
As to the kind of experiment: SPR Biacore T100, captured antibody, Gas6 analyte, first test. The protocol: (§1) An anti-human IgG antibody was immobilized on a CM5 sensor chip (manufactured by GE Healthcare Japan Corp.) using Human Antibody Capture Kit (manufactured by GE Healthcare Japan Corp.) according to the attached manual. Each test antibody adjusted to 1 μg/mL was added for 10 seconds at a flow rate of 10 μL/min to flow cells. […] The measurement was performed by the […] method. The obtained sensorgram was analyzed using Bia Evaluation Software (manufactured by GE Healthcare Japan Corp.), and the kinetic constant of each antibody was calculated.
Background: SPR reads the build-up and loss of mass on a sensor chip optically.
One may read the Kd as a measure of binding affinity in units of concentration. For orientation: koff means the first-order rate constant of dissociation. In general, kon refers to a measure of how fast the partners come together. On to B1, for which the Kd was less than 13.8 nM, the koff turned out to be 0.000924 s⁻¹ and the kon was greater than 66800 M⁻¹ s⁻¹.
As for B2, the Kd was less than 16 nM, the koff amounted to 0.00115 s⁻¹ and the kon was greater than 72000 M⁻¹ s⁻¹.
As for B3, the Kd is less than 2.13 nM, the koff worked out at 0.000158 s⁻¹ and the kon is greater than 74300 M⁻¹ s⁻¹.
Regarding B4, the Kd is less than 1.16 nM; the koff is 0.000141 s⁻¹ and 0.000137 s⁻¹; the kon was greater than 121000 M⁻¹ s⁻¹.
As to B5, the Kd was less than 2.33 nM, the koff worked out at 0.000239 s⁻¹ and the kon is greater than 103000 M⁻¹ s⁻¹.
In the same order, the values of B6 are less than 1.88 nM, 0.000242 s⁻¹ and greater than 129000 M⁻¹ s⁻¹.
In the same order, the values of B7 are less than 1.92 nM, 0.000204 s⁻¹ and greater than 106000 M⁻¹ s⁻¹.
Take B8: the Kd was less than 1.88 nM, the koff was 0.0002 s⁻¹ and the kon was greater than 106000 M⁻¹ s⁻¹.
Take B9: the Kd was less than 2.61 nM, the koff came to 0.000277 s⁻¹ and the kon is greater than 106000 M⁻¹ s⁻¹.
In the same order, the values of B10 are less than 3.2 nM, 0.000341 s⁻¹ and greater than 106000 M⁻¹ s⁻¹.
For B11, in that order: less than 1.96 nM, 0.000247 s⁻¹ and greater than 126000 M⁻¹ s⁻¹.
As to B12, the Kd is less than 2.59 nM; the koff is 0.000281 s⁻¹ and 0.000278 s⁻¹; the kon is greater than 107000 M⁻¹ s⁻¹.
On to B13, for which the Kd is less than 1.41 nM, the koff was determined as 0.000188 s⁻¹ and the kon is greater than 133000 M⁻¹ s⁻¹.
As for B14, the Kd was less than 3.33 nM, the koff came to 0.000352 s⁻¹ and the association rate constant (kon) was greater than 106000 M⁻¹ s⁻¹.
In the same order, the values of B15 are less than 2.91 nM, 0.000299 s⁻¹ and greater than 103000 M⁻¹ s⁻¹.
For B16, in that order: less than 3.07 nM, 0.000329 s⁻¹ and greater than 107000 M⁻¹ s⁻¹.

The target of the next assay is T1, C-terminally FLAG-tagged human Gas6 …. Put plainly: competitive ELISA, inhibition of hGas6-F binding to immobilised hAxl-hFc. For orientation: In an ELISA, binding on a coated surface is turned into a signal by an enzyme label.
For orientation: IC50 means the concentration that gives 50% inhibition. On to B2, for which the IC50 was determined as 0.742 µg/mL.
The same measure, in the same setting: the same measure for B3: 0.0336 µg/mL.
On the same count and under the same terms, the same measure for B4: 0.0123 µg/mL.
On to B5, for which the IC50 was found to be 0.0126 µg/mL.
For B6, the IC50 is 0.0118 µg/mL.

For another assay the target is unchanged. As to the kind of experiment: SPR Biacore T100, captured antibody, Gas6 analyte, retest. The protocol: as §1
In this retest, unlike the test mentioned above, the number of antibodies to be measured and variations in the concentration of the analyte were decreased, and the assay was conducted for a short time (within several hours), instead of sufficiently leaving standing the analyte added to the vial. […] This minimizes the adsorption of the analyte to the vial and permits more accurate calculation of ka and KD values than that in the test mentioned above.
With B2, the Kd stood at 16.5 nM, the koff is 0.00149 s⁻¹ and the kon is 90000 M⁻¹ s⁻¹.
In the same order, the values of B3 are 1.29 nM, 0.000197 s⁻¹ and 152000 M⁻¹ s⁻¹.
On to B4, for which the Kd worked out at 0.202 nM, the koff stood at 7.66e-05 s⁻¹ and the kon was determined as 380000 M⁻¹ s⁻¹.
On to B5, for which the Kd came to 0.484 nM, the koff came to 0.000154 s⁻¹ and the kon came out at 319000 M⁻¹ s⁻¹.
B6: the Kd amounted to 0.403 nM, the koff was 0.000142 s⁻¹ and the kon turned out to be 353000 M⁻¹ s⁻¹.

A further assay has the same target. Put plainly: SPR Biacore T100, captured antibody, Gas6 analyte, first test. The source holds these as a separate data set. The protocol:
The measurement instrument used was Biacore® T100 (manufactured by GE Healthcare Japan Corp.).
as §1
For the molecule B1, the “fold increase of KD against the KM5320 chimeric antibody” value is no less than 10 fold and the “fold increase of kd against the KM5320 chimeric antibody” value was roughly 6 fold.

For the next assay the target is unchanged. As to the kind of experiment: ELISA, hGas6-F captured by anti-FLAG, anti-human IgG-HRP. The protocol: First, 2 μg/mL anti-FLAG antibody [Monoclonal ANTI-FLAG M2 antibody produced in mouse (manufactured by Sigma-Aldrich Co. LLC) diluted with PBS (manufactured by Nacalai Tesque, Inc.)] was dispensed at 50 μL/well to a 96-well plate for ELISA (manufactured by Nalge Nunc International), and the plate was left standing overnight at 4° C. for adsorption. After removal of the immobilization solution, 1% BSA-PBS (manufactured by Nacalai Tesque, Inc.) was added thereto at 300 μL/well, and the plate was left standing at room temperature for 1 hour for blocking and washed five times with Tween 20-PBS (manufactured by Wako Pure Chemical Industries Ltd.).
In order to reduce the backgrounds of measurement values, the diluted secondary antibody solution was mixed with 50 μg/mL of an anti-DNP mouse IgG1 antibody and incubated at room temperature for 1 hour for use.
As usually defined, the EC50 is the concentration needed to bring the measured effect to its halfway point. With B2, the EC50 was found to be 0.0191 µg/mL.
Same read-out and setting: the same measure for B3: 0.0122 µg/mL; for B4: 0.00678 µg/mL; for B5: 0.00595 µg/mL.
For the molecule B6, the EC50 amounted to 0.00669 µg/mL.
